The data set concerns the molecule itself. Nature of the data set: native MS; 10 μM monomer in 10 mM aqueous ammonium acetate, pH 6.8; nano-electrospray, modified Orbitrap (Exactive Plus / Q-Exactive EMR); oligomeric state of the protein with itself.

The record followed here is article PMC6318259, “Distinct Stabilities of the Structurally Homologous Heptameric Co-Chaperonins GroES and gp31” (Journal of the American Society for Mass Spectrometry, 2018).

Broadly, the stoichiometry N is a count of units in the complex or per binding partner.

B1: GroES (natural protein, Escherichia coli)
chain: MNIRPLHDRVIVKRKEVETKSAGGIVLTGSAAAKSTRGEVLAVGNGRILENGEVKPLDVKVGDIVIFNDGYGVKSEKIDNEEVLIMSESDILAIVEA
notes: GroES, co-chaperonin of Escherichia coli; homo-heptamer of 10.4 kDa subunits; The printed subunit mass of 10.4 kDa fits the whole protein; also called GroES heptamer; co-chaperonin GroES; source: over-expressed in E. coli strain MC1009, purified as described previously
In the case of B1, the “stoichiometry N” value is 7.

B2: gp31 (natural protein, bacteriophage T4)
chain: MSEVQQLPIRAVGEYVILVSEPAQAGDEEVTESGLIIGKRVQGEVPELCVVHSVGPDVPEGFCEVGDLTSLPVGQIRNVPHPFVALGLKQPKEIKQKFVTCHYKAIPCLYK
notes: gp31, co-chaperonin encoded by bacteriophage T4, structural homologue of GroES; heptamer of identical 12 kDa subunits; The printed subunit mass of 12 kDa fits the whole protein; also called gp31 heptamer; source: over-expressed in E. coli strain MC1009, purified as described previously
For B2, the “stoichiometry N” value stood at 7.
